{
  "source": "patent US20220324969A1",
  "about": "(MYTHIC THERAPEUTICS, published 2022)",
  "binders": {"B1": {"name": "IMGN779 (antibody, V domains shown)", "VH": "QVQLQQPGAEVVKPGASVKMSCKASGYTFTSYYIHWIKQTPGQGLEWVGVIYPGNDDISYNQKFQGKATLTADKSSTTAYMQLSSLTSEDSAVYYCAREVRLRYFDVWGQGTTVTVSS", "VL": "EIVLTQSPGSLAVSPGERVTMSCKSSQSVFFSSSQKNYLAWYQQIPGQSPRLLIYWASTRESGVPDRFTGSGSGTDFTLTISSVQPEDLAIYYCHQYLSSRTFGQGTKLEIK", "notes": "Unconjugated IgG from Expi293 supernatant; entries called heavy/light chain are variable domains; also called MYT1212; IMGN779 starting ABPC"}, "B2": {"name": "Vadastuximab (antibody, V domains shown)", "VH": "QVQLVQSGAEVKKPGASVKVSCKASGYTFTNYDINWVRQAPGQGLEWIGWIYPGDGSTKYNEKFKAKATLTADTSTSTAYMELRSLRSDDTAVYYCASGYEDAMDYWGQGTTVTVSS", "VL": "DIQMTQSPSSLSASVGDRVTINCKASQDINSYLSWFQQKPGKAPKTLIYRANRLVDGVPSRFSGSGSGQDYTLTISSLQPEDFATYYCLQYDEFPLTFGGGTKVEIK", "notes": "IgG from Expi293 supernatant; entries called heavy/light chain are variable domains; also called MYT1334; vadastuximab starting ABPC"}, "B3": {"name": "MYT2678 (antibody, V domains shown)", "VH": "B2 VH", "VL": "B2 VL with L96H", "notes": "IgG; vadastuximab VL variant #26 (L96H)"}, "B4": {"name": "MYT2663 (antibody, V domains shown)", "VH": "B2 VH", "VL": "B2 VL with S34H", "notes": "IgG; vadastuximab VL variant #11 (S34H)"}, "B5": {"name": "MYT2673 (antibody, V domains shown)", "VH": "B2 VH", "VL": "B2 VL with Y91H", "notes": "IgG; vadastuximab VL variant #21 (Y91H)"}},
  "key": {"[1]": {"biological_target": "T1, CD33 (Sino Biological, Cat #12238-H08H) (UniProt P20138 18-259)", "T1 sequence (P20138 18-259 limits assumed)": "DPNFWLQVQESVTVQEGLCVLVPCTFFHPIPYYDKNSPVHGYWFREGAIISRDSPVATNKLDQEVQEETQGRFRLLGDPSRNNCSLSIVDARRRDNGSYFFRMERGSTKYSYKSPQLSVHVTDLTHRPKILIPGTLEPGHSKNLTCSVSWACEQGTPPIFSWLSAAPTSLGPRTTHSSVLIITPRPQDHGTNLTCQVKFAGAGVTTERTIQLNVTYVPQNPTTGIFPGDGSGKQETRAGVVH", "experiment": "BLI, IgG captured on anti-human Fc biosensor, CD33 at low pH or high pH"}, "[2]": {"biological_target": "T1, CD33 (Sino Biological, Cat #12238-H08H)", "experiment": "BLI, IgG captured on anti-human Fc sensor, pH 7.4 and pH 5.4"}},
  "note": "Where a chain is given by its changes, count along the chain named. Names may count otherwise.",
  "data": [
    {"binder": "B1", "values": [
      {"measurement": "binding result", "setting": "[1]", "value": "binds"}
    ]},
    {"binder": "B2", "values": [
      {"measurement": "binding result", "setting": "[1]", "value": "binds"}
    ]},
    {"binder": "B3", "values": [
      {"measurement": "binding result", "setting": "[2]", "value": "no binding (tested: 50 nM CD33)"}
    ]},
    {"binder": "B4", "values": [
      {"measurement": "binding result", "setting": "[2]", "value": "no binding (tested: 50 nM CD33)"}
    ]},
    {"binder": "B5", "values": [
      {"measurement": "binding result", "setting": "[2]", "value": "no binding (tested: 50 nM CD33)"}
    ]}
  ]
}
